Drawing on patent publication US20240010680A1 (XIAMEN UNIVERSITY, published 2024), this text covers Kd for 4 molecules.

T1 sequence (Q9BYF1 18-740 limits assumed): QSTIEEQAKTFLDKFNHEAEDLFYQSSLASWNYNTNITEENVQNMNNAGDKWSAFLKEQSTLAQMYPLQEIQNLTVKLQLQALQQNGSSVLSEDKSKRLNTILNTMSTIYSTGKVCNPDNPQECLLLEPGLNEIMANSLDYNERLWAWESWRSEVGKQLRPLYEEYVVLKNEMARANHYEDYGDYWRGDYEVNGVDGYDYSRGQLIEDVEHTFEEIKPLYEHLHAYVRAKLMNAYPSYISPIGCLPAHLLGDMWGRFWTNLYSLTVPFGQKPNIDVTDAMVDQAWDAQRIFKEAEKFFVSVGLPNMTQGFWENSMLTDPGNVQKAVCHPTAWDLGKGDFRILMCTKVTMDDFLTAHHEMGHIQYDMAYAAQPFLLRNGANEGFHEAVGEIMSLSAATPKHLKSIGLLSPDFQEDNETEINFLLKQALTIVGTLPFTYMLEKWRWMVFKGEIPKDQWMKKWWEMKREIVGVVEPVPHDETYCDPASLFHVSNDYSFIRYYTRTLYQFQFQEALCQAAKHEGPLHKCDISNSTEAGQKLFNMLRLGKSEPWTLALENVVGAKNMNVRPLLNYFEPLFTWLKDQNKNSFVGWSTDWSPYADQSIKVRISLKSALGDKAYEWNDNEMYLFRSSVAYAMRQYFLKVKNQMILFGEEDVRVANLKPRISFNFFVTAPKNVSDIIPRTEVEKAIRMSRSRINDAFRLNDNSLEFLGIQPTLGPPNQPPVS

The assay concerns the target T1, hACE2 purified protein (human (printed as hACE2), UniProt Q9BYF1 18-740).
T1 construct: also called CM5-hACE2 chip
Put plainly: SPR (Biacore T200), hACE2 amine-coupled to CM5 chip, peptide as analyte.
Protocol: Specific Steps: [0031] a. The GE Biacore T200 is started, the Series S Sensor Chip CM5 is embedded into the GE Biacore T200, the PBS is degassed to obtain a degassed PBS, and the degassed PBS is used throughout the experiment; [0032] b. The NHS, the EDC, the ethanolamine, and the hACE2 (1 mg/mL) are placed on a feeding plate of the GE Biacore T200 according to volumes indicated by the GE Biacore T200 using Eppendorf (EP) tubes in sufficient quantities; [0033] c. […] A mobile solution (the degassed PBS) is closed, a command window is closed, and a report is served to obtain a CM5-hACE2 chip;
Specific Steps: [0038] a. Preparing different dilutions as samples for testing: the peptides in Table 1 to be tested at a concentration of 3 mmol/L (mM) are dissolved and sequentially diluted into different dilutions of 100 μmol/L (μM), 60 μM, 30 μM, 10 μM, 3 μM, 1 μM, 0.3 μM, and 0 using the PBS to obtain the samples. Each of the different dilutions is ensured to have a volume of no less than 400 μL and separately packaged on EP tubes. The samples are placed on a test plate of the GE Biacore T200, and the test plate is stuck in a test slot; [0039] b.
In the case of YSYIQK (also called YSYIQK; third peptide) [Peptide21], the Kd (in general, the equilibrium constant for the complex coming apart) worked out at 36.8 µM. In other words, the double-digit micromolar range.

In turn, YTYIQK (also called YTYIQK) [Peptide23] showed a Kd of 46.5 µM. The Kd values of the last two molecules are within 1.5-fold of each other.

YKYKYL (also called YKYKYL; first peptide) [Peptide12] returned a Kd of 21.4 µM.

For the molecule YRYRYL (also called YRYRYL; second peptide) [Peptide13], the Kd worked out at 25.3 µM.
